According to patent US20190227052A1 (published 2019):

Target: human NRP1 protein (human, UniProt O14786 22-856)
Test: ELISA

Chain of human NRP1 protein (O14786 22-856): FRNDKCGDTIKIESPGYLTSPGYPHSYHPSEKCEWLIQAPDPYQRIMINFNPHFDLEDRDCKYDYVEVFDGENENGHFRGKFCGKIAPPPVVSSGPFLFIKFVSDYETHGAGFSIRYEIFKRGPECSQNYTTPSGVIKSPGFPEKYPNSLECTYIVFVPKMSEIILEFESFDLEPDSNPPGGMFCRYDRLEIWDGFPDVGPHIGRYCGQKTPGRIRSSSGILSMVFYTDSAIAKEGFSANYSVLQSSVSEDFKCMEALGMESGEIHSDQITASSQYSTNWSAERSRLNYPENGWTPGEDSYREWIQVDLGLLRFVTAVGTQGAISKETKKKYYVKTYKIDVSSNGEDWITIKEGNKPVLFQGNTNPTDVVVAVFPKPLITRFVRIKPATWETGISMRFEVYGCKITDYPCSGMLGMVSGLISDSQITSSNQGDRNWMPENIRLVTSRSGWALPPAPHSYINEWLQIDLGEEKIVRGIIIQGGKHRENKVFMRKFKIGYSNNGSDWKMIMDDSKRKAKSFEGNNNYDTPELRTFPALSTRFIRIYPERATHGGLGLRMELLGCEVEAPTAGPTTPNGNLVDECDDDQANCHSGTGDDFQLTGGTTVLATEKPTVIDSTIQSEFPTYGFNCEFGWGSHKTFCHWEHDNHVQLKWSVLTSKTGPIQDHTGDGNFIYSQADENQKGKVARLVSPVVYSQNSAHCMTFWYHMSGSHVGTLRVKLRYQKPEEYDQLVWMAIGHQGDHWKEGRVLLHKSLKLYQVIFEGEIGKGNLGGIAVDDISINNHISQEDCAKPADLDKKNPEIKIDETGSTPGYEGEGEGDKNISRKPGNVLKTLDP

Row | Kd [nM] | Binder
1 | 1110 | 1A03 anti-NRP1 IgG antibody (antibody, V domains shown) VH: EVQLLESGGGLVQFGGSLRLSQAASGFTFSSYYMSWVRQAFGKGLEWVSAISFGSSNKYYADSVQGRFTISRDNSKNTLYLQMNELRAEDTAVYYCARRKKSFDYWGQGTLVTVSS VL: QSVLTQFFSASGTPGQRVTISCSGFSSNIGNNDVSWYQQLFGTAPKLLIYSCNNRPSGVPDRFSGSKSGTSASLAISGLSSDEADYYCGAWVASLSAYVFGGGTKLTVTL
2 | 426 | IRCR-101 (3H10 converted into IgG format) (antibody, V domains shown) VH: EVQLLESGGGLVQFQQSLRLSQAASQFTFSSYYMSWVRQAFGKGLEWVSAISPGSSNKYYADSVKGRFTISRDNSKNTLYLQMNELRAEDTAVYYCARRKYMFDYWGQGTLVTVSS VL: GSVLTQPPSASGTPGQRVTISCTGESSNIGNNDVYWYQQLPGTAFKLLIYSQSNRSGMPDRFSGSKSGTSASLAISGLRSEDEADYYCASWDSSLSGYVFGGGTKLTVTL
